Experimental findings from publication PMC3864932, “Identification of Crucial Amino Acids in Mouse Aldehyde Oxidase 3 That Determine Substrate Specificity” (PLoS ONE, 2013) are described below.

Holding throughout (test): purified protein
Format in all cases: biochemical, Mus musculus
What all share (conditions): 100 µM DCPIP as electron acceptor, 50 mM Tris-HCl pH 8.0, 1 mM EDTA, 37 °C, kcat corrected for Mo content

Substrate in data set [1]: O=Cc1ccccc1
Substrate in data set [2]: Oc1ncnc2[nH]ncc12
Substrate in data set [3]: O=c1[nH]cnc2nc[nH]c12

B1: mAOX3 (mouse aldehyde oxidase 3) (Mus musculus; F1014I) (protein)
chain: MSPSKESDELIFFVNGKKVTERNADPEVNLLFYLRKVIRLTGTKYGCGGGDCGACTVMISRYDPISKRISHFSATACLVPICSLHGAAVTTVEGIGSTKTRIHPVQERIAKGHGTQCGFCTPGMVMSIYTLLRNHPEPSTEQIMETLGGNLCRCTGYRPIVESAKSFCPSSTCCQMNGEGKCCLDEEKNEPERKNSVCTKLYEKKEFQPLDPTQELIFPPELMRMAEESQNTVLTFRGERTTWIAPGTLNDLLELKMKHPSAPLVIGNTYLGLHMKFTDVSYPIIISPARILELFVVTNTKQGLTLGAGLSLTQVKNVLSDVVSRLPKEKTQIYCALLKQLKTLAGQQIRNVASLGGHIISRLPTSDLNPILGIGNCILNVASTEGIQQIPLNDHFLAGVPDAILKPEQVLISVFVPRSSKWEFVSAFRQAPRQQNAFATVNAGMKVVFKEDTNTITDLGILYGGIGATVISADKSCRQLIGRCWDEEMLDDAGKMICEEVSLLMAAPGGMEEYRKTLAISFLFMFYLDVLKQLKTRDPHKYPDISQKLLHILEDFPLTMPYGMQSFQDVDFQQPLQDPIGRPIMHQSGIKHATGEAVFCDDMSVLPGELFLAVVTSSKSHAKIISLDASEALASLGVVDVVTARDVPGDNGREEESLYAQDEVICVGQIVCAVAADSYAHAQQAAKKVKIVYQDIEPMIVTVQDALQYESFIGPERKLEQGNVEEAFQCADQILEGEVHLGGQEHFYMETQSVRVVPKGEDKEMDIYVSSQDAAFTQEMVARTLGIPKNRINCHVKRVGGAFGGKASKPGLLASVAAVAAQKTGRPIRFILERRDDMLITGGRHPLLGKYKIGFMNNGKIKAADIQLYINGGCTPDDSELVIEYALLKLENAYKIPNLRVRGRVCKTNLPSNTAFRGFGFPQGAFVTETCMSAVAAKCRLPPEKVRELNMYRTIDRTIHNQEFDPTNLLQCWEACVENSSYYNRKKAVDEFNQQRFWKKRGIAIIPMKFSVGIPKTFYYQAAALVQIYTDGSVLVAHGGVELGQGINTKMIQVASRELKIPMSYIHLDEMSTVTVPNTVTTGASTGADVNGRAVQNACQILMKRLEPIIKQNPSGTWEEWVKEAFVQSISLSATGYFRGYQADMDWEKGEGDIFPYFVFGAACSEVEIDCLTGAHKNIRTDIVMDGSFSINPAVDIGQIEGAFVQGLGLYTLEELKYSPEGVLYTRGPHQYKIASVTDIPEEFHVSLLTPTPNPKAIYSSKGLGEAGTFLGCSVFFAIAAAVAAAREERGLSPIWAINSPATAEVIRMACEDQFTNLVPQTDSKCCKPWSIPVA
notes: N-terminal His6-tag, full length, plasmid pMMA1, expressed in E. coli; homodimer with Moco, two [2Fe-2S], FAD
On to B1, for which, in “purified protein [1]”, the Km (in general, the substrate concentration at which the rate is half of its maximum) was determined as 22.7 ± 2.7 µM; the kcat (in general, the number of substrate molecules converted per active site and unit of time at saturation) worked out at 0.317 ± 0.05 s⁻¹; the kcat/Km (commonly the turnover number divided by the Michaelis constant) worked out at 13300 ± 3330 M⁻¹ s⁻¹.

B2: mAOX3 (mouse aldehyde oxidase 3) (Mus musculus; A807E/D878L/F776K/K889H/L881S/P1015T/Y1019L/Y885R) (protein)
chain: MSPSKESDELIFFVNGKKVTERNADPEVNLLFYLRKVIRLTGTKYGCGGGDCGACTVMISRYDPISKRISHFSATACLVPICSLHGAAVTTVEGIGSTKTRIHPVQERIAKGHGTQCGFCTPGMVMSIYTLLRNHPEPSTEQIMETLGGNLCRCTGYRPIVESAKSFCPSSTCCQMNGEGKCCLDEEKNEPERKNSVCTKLYEKKEFQPLDPTQELIFPPELMRMAEESQNTVLTFRGERTTWIAPGTLNDLLELKMKHPSAPLVIGNTYLGLHMKFTDVSYPIIISPARILELFVVTNTKQGLTLGAGLSLTQVKNVLSDVVSRLPKEKTQIYCALLKQLKTLAGQQIRNVASLGGHIISRLPTSDLNPILGIGNCILNVASTEGIQQIPLNDHFLAGVPDAILKPEQVLISVFVPRSSKWEFVSAFRQAPRQQNAFATVNAGMKVVFKEDTNTITDLGILYGGIGATVISADKSCRQLIGRCWDEEMLDDAGKMICEEVSLLMAAPGGMEEYRKTLAISFLFMFYLDVLKQLKTRDPHKYPDISQKLLHILEDFPLTMPYGMQSFQDVDFQQPLQDPIGRPIMHQSGIKHATGEAVFCDDMSVLPGELFLAVVTSSKSHAKIISLDASEALASLGVVDVVTARDVPGDNGREEESLYAQDEVICVGQIVCAVAADSYAHAQQAAKKVKIVYQDIEPMIVTVQDALQYESFIGPERKLEQGNVEEAFQCADQILEGEVHLGGQEHFYMETQSVRVVPKGEDKEMDIYVSSQDAAKTQEMVARTLGIPKNRINCHVKRVGGAFGGKESKPGLLASVAAVAAQKTGRPIRFILERRDDMLITGGRHPLLGKYKIGFMNNGKIKAADIQLYINGGCTPDLSESVIERALLHLENAYKIPNLRVRGRVCKTNLPSNTAFRGFGFPQGAFVTETCMSAVAAKCRLPPEKVRELNMYRTIDRTIHNQEFDPTNLLQCWEACVENSSYYNRKKAVDEFNQQRFWKKRGIAIIPMKFSVGFTKTFLYQAAALVQIYTDGSVLVAHGGVELGQGINTKMIQVASRELKIPMSYIHLDEMSTVTVPNTVTTGASTGADVNGRAVQNACQILMKRLEPIIKQNPSGTWEEWVKEAFVQSISLSATGYFRGYQADMDWEKGEGDIFPYFVFGAACSEVEIDCLTGAHKNIRTDIVMDGSFSINPAVDIGQIEGAFVQGLGLYTLEELKYSPEGVLYTRGPHQYKIASVTDIPEEFHVSLLTPTPNPKAIYSSKGLGEAGTFLGCSVFFAIAAAVAAAREERGLSPIWAINSPATAEVIRMACEDQFTNLVPQTDSKCCKPWSIPVA
notes: as for B1
B2: the Km is 133 ± 10 µM in the data set “purified protein [2]”, 4085 ± 227 µM in “purified protein [3]” and 2122 ± 88 µM in “purified protein [1]”. Also, the catalytic constant (kcat) is 1.58 ± 0.1 s⁻¹ in the data set “purified protein [2]”, 0.417 ± 0.0167 s⁻¹ in “purified protein [3]” and 3.9 ± 0.25 s⁻¹ in “purified protein [1]”. Moreover, the kcat/Km in the data set “purified protein [2]” was found to be 12000 ± 1120 M⁻¹ s⁻¹; in the data set “purified protein [3]” it was 104 ± 8 M⁻¹ s⁻¹; in the data set “purified protein [1]”, 1830 ± 133 M⁻¹ s⁻¹.

B3: mAOX3 (mouse aldehyde oxidase 3) (Mus musculus; A807E/D878L/F776K/L881S/P1015T/Y1019L/Y885R) (protein)
chain: MSPSKESDELIFFVNGKKVTERNADPEVNLLFYLRKVIRLTGTKYGCGGGDCGACTVMISRYDPISKRISHFSATACLVPICSLHGAAVTTVEGIGSTKTRIHPVQERIAKGHGTQCGFCTPGMVMSIYTLLRNHPEPSTEQIMETLGGNLCRCTGYRPIVESAKSFCPSSTCCQMNGEGKCCLDEEKNEPERKNSVCTKLYEKKEFQPLDPTQELIFPPELMRMAEESQNTVLTFRGERTTWIAPGTLNDLLELKMKHPSAPLVIGNTYLGLHMKFTDVSYPIIISPARILELFVVTNTKQGLTLGAGLSLTQVKNVLSDVVSRLPKEKTQIYCALLKQLKTLAGQQIRNVASLGGHIISRLPTSDLNPILGIGNCILNVASTEGIQQIPLNDHFLAGVPDAILKPEQVLISVFVPRSSKWEFVSAFRQAPRQQNAFATVNAGMKVVFKEDTNTITDLGILYGGIGATVISADKSCRQLIGRCWDEEMLDDAGKMICEEVSLLMAAPGGMEEYRKTLAISFLFMFYLDVLKQLKTRDPHKYPDISQKLLHILEDFPLTMPYGMQSFQDVDFQQPLQDPIGRPIMHQSGIKHATGEAVFCDDMSVLPGELFLAVVTSSKSHAKIISLDASEALASLGVVDVVTARDVPGDNGREEESLYAQDEVICVGQIVCAVAADSYAHAQQAAKKVKIVYQDIEPMIVTVQDALQYESFIGPERKLEQGNVEEAFQCADQILEGEVHLGGQEHFYMETQSVRVVPKGEDKEMDIYVSSQDAAKTQEMVARTLGIPKNRINCHVKRVGGAFGGKESKPGLLASVAAVAAQKTGRPIRFILERRDDMLITGGRHPLLGKYKIGFMNNGKIKAADIQLYINGGCTPDLSESVIERALLKLENAYKIPNLRVRGRVCKTNLPSNTAFRGFGFPQGAFVTETCMSAVAAKCRLPPEKVRELNMYRTIDRTIHNQEFDPTNLLQCWEACVENSSYYNRKKAVDEFNQQRFWKKRGIAIIPMKFSVGFTKTFLYQAAALVQIYTDGSVLVAHGGVELGQGINTKMIQVASRELKIPMSYIHLDEMSTVTVPNTVTTGASTGADVNGRAVQNACQILMKRLEPIIKQNPSGTWEEWVKEAFVQSISLSATGYFRGYQADMDWEKGEGDIFPYFVFGAACSEVEIDCLTGAHKNIRTDIVMDGSFSINPAVDIGQIEGAFVQGLGLYTLEELKYSPEGVLYTRGPHQYKIASVTDIPEEFHVSLLTPTPNPKAIYSSKGLGEAGTFLGCSVFFAIAAAVAAAREERGLSPIWAINSPATAEVIRMACEDQFTNLVPQTDSKCCKPWSIPVA
notes: as for B1
With B3, in the data set “purified protein [2]”, the Km was 2933 ± 380 µM, the kcat came to 0.233 ± 0.0167 s⁻¹ and the kcat/Km turned out to be 83.3 ± 16.7 M⁻¹ s⁻¹.

B4: mAOX3 (mouse aldehyde oxidase 3) (Mus musculus; A807E/D878L/F776K/G1013S/K1016V/K889H/L881S/P1015T/S1011G/V1012I/Y1019L/Y1020N/Y885R) (protein)
chain: MSPSKESDELIFFVNGKKVTERNADPEVNLLFYLRKVIRLTGTKYGCGGGDCGACTVMISRYDPISKRISHFSATACLVPICSLHGAAVTTVEGIGSTKTRIHPVQERIAKGHGTQCGFCTPGMVMSIYTLLRNHPEPSTEQIMETLGGNLCRCTGYRPIVESAKSFCPSSTCCQMNGEGKCCLDEEKNEPERKNSVCTKLYEKKEFQPLDPTQELIFPPELMRMAEESQNTVLTFRGERTTWIAPGTLNDLLELKMKHPSAPLVIGNTYLGLHMKFTDVSYPIIISPARILELFVVTNTKQGLTLGAGLSLTQVKNVLSDVVSRLPKEKTQIYCALLKQLKTLAGQQIRNVASLGGHIISRLPTSDLNPILGIGNCILNVASTEGIQQIPLNDHFLAGVPDAILKPEQVLISVFVPRSSKWEFVSAFRQAPRQQNAFATVNAGMKVVFKEDTNTITDLGILYGGIGATVISADKSCRQLIGRCWDEEMLDDAGKMICEEVSLLMAAPGGMEEYRKTLAISFLFMFYLDVLKQLKTRDPHKYPDISQKLLHILEDFPLTMPYGMQSFQDVDFQQPLQDPIGRPIMHQSGIKHATGEAVFCDDMSVLPGELFLAVVTSSKSHAKIISLDASEALASLGVVDVVTARDVPGDNGREEESLYAQDEVICVGQIVCAVAADSYAHAQQAAKKVKIVYQDIEPMIVTVQDALQYESFIGPERKLEQGNVEEAFQCADQILEGEVHLGGQEHFYMETQSVRVVPKGEDKEMDIYVSSQDAAKTQEMVARTLGIPKNRINCHVKRVGGAFGGKESKPGLLASVAAVAAQKTGRPIRFILERRDDMLITGGRHPLLGKYKIGFMNNGKIKAADIQLYINGGCTPDLSESVIERALLHLENAYKIPNLRVRGRVCKTNLPSNTAFRGFGFPQGAFVTETCMSAVAAKCRLPPEKVRELNMYRTIDRTIHNQEFDPTNLLQCWEACVENSSYYNRKKAVDEFNQQRFWKKRGIAIIPMKFGISFTVTFLNQAAALVQIYTDGSVLVAHGGVELGQGINTKMIQVASRELKIPMSYIHLDEMSTVTVPNTVTTGASTGADVNGRAVQNACQILMKRLEPIIKQNPSGTWEEWVKEAFVQSISLSATGYFRGYQADMDWEKGEGDIFPYFVFGAACSEVEIDCLTGAHKNIRTDIVMDGSFSINPAVDIGQIEGAFVQGLGLYTLEELKYSPEGVLYTRGPHQYKIASVTDIPEEFHVSLLTPTPNPKAIYSSKGLGEAGTFLGCSVFFAIAAAVAAAREERGLSPIWAINSPATAEVIRMACEDQFTNLVPQTDSKCCKPWSIPVA
notes: as for B1
Consider B4, for which, in the data set “purified protein [2]”, the Km was 620 ± 16 µM, the kcat worked out at 0.65 ± 0.05 s⁻¹ and the kcat/Km stood at 1050 ± 83.3 M⁻¹ s⁻¹. Also, in the data set “purified protein [3]”, the Km is 1736 ± 155 µM, the kcat was 0.0833 s⁻¹ and the kcat/Km came out at 47.8 ± 5.83 M⁻¹ s⁻¹.
